Experimental data from US20260345809 (published 2026).

Experiments:
[1] = biological target: T1, GPC3 (human, UniProt P51654); experiment: FACS, GPC3-CHO-K1 cells
[2] = biological target: T1, GPC3; experiment: FACS, HepG2 cells
[3] = biological target: T1, GPC3; experiment: FACS, HepG2 cells; remark: listed apart in the source
[4] = biological target: T1, GPC3; experiment: FACS, Huh-7 cells

B1: GC33 (antibody, V domains shown)
VH: QVQLVQSGAEVKKPGASVKVSCKASGYTFTDYEMHWVRQAPGQGLEWMGALDPKTGDTAYSQKFKGRVTLTADKSTSTAYMELSSLTSEDTAVYYCTRFYSYTYWGQGTLVTVSS
VL: DVVMTQSPLSLPVTPGEPASISCRSSQSLVHSNRNTYLHWYLQKPGQSPQLLIYKVSNRFSGVPDRFSGSGSGTDFTLKISRVEAEDVGVYYCSQNTHVPPTFGQGTKLEIKR
[1]
  EC50: 0.956 nM
[2]
  EC50: 0.745 nM
[3]
  EC50: 0.269 µg/mL
[4]
  EC50: 0.953 nM

B2: GC33-L4-D4 (antibody, V domains shown)
VH: B1 VH
VL: B1 VL
modifications: ADC, MC-MMAF conjugate of GC33
[3]
  EC50: 0.112 µg/mL

B3: GC33-ZLA (antibody, V domains shown)
VH: B1 VH
VL: B1 VL
modifications: ADC, ZLA conjugate of GC33
[3]
  EC50: 0.143 µg/mL

B4: Y035 (antibody, V domains shown)
VH: EVQLVQSGAEVKKPGASVKVSCKASGYTHSDYEMHWVRQAPGQGLEWMGAIHPGSGDTAYNQRFKGRVTITADKSTSTAYMELSSLRSEDTAVYYCARFYSYAYWGQGTLVTVSA
VL: DIVMTQTPLSLPVTPGEPASISCRSSQSLVHSNGNTYLQWYLQWYLQKPGQSPQLLIYKVSNRFSGVPDRFSGSGSGTDFTLKISRVEAEDVGVYYCSQSIYVPYTFGQGTKLEIKR
[1]
  EC50: 1.46 nM
[2]
  EC50: 1.25 nM
[4]
  EC50: 1.18 nM
